Laboratory results reported in PMC7556843, “The dynamics of linear polyubiquitin” (Science Advances, 2020).

How the values were obtained:
[1] = biological target: T1, linear (M1-linked) triubiquitin (UniProt P0CG48 1-76; P0CG48 1-76; P0CG48 1-76); test: ITC; NEMO titrated into Ub3 or Ub4 in the cell; 298 K; 50 mM sodium phosphate pH 7.0, 50 mM NaCl; triplicate; details: both partners purified
T1 construct: ubiquitin, 76-residue unit, first of three joined head to tail (residues 1-76 of the chain); ubiquitin, 76-residue unit, second of three (residues 77-152 of the chain); ubiquitin, 76-residue unit, third of three (residues 153-228 of the chain); Construct was a gift of P. Elliott and D. Komander; no tag or extra residues are told; One polypeptide of three ubiquitin units linked M1 to C-terminus; …
T1 sequence (P0CG48 1-228, one chain of several): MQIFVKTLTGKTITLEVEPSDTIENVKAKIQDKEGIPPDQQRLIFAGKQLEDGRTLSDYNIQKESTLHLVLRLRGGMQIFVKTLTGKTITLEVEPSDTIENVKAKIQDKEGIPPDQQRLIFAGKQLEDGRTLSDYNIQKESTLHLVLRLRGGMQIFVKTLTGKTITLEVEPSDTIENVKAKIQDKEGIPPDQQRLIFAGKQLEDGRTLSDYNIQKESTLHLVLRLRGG

[2] = biological target: T2, linear (M1-linked) tetraubiquitin (UniProt P0CG48 1-76; P0CG48 1-76; P0CG48 1-76; P0CG48 1-76); test: as above; details: both partners purified
T2 construct: ubiquitin, 76-residue unit, first of four joined head to tail (residues 1-76 of the chain); ubiquitin, 76-residue unit, second of four (residues 77-152 of the chain); ubiquitin, 76-residue unit, third of four (residues 153-228 of the chain); ubiquitin, 76-residue unit, fourth of four (residues 229-304 of the chain); Construct was a gift of P. Elliott and D. Komander; no tag or extra residues are …
T2 sequence (P0CG48 1-304, one chain of several): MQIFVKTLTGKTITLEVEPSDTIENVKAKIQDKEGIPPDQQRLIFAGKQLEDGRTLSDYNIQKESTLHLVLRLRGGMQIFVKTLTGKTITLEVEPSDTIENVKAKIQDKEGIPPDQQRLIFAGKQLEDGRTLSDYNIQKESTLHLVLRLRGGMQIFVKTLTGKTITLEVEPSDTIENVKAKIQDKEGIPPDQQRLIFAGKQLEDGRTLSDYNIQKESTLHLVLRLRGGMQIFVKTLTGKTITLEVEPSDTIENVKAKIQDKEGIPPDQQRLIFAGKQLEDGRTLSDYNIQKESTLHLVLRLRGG

[3] = biological target: T1, linear (M1-linked) triubiquitin; test: SEC-MALS; SEC (Superdex 200 10/300 GL, 4°C) with static light scattering (right-angle, Viscotek TDA 305, 30°C); about 8 mg/ml; 50 mM tris-HCl, 300 mM NaCl pH 8.0 and 50 mM sodium phosphate, 50 mM NaCl pH 7.0; details: both partners purified
[4] = biological target: T2, linear (M1-linked) tetraubiquitin; test: as above; details: both partners purified
[5] = biological target: the molecule itself; test: as above
[6] = biological target: T1, linear (M1-linked) triubiquitin; test: SPR; Ub3 and Ub4 immobilised by amine coupling (456 and 721 RU); NEMO injected in a twofold series; 25°C; 50 mM sodium phosphate, 50 mM NaCl, 0.005% Tween 20, pH 7; equilibrium responses fitted to a 1:1 Langmuir isotherm; details: both partners purified
[7] = biological target: T2, linear (M1-linked) tetraubiquitin; test: as above; details: both partners purified

- Kd [1]: 1.6 µM
- dH [1]: -4.28 kcal/mol
- Kd [2]: 4.1 µM
- dH [2]: -4.49 kcal/mol
- stoichiometry N [3]: 2 NEMO:Ub3
- stoichiometry N [4]: 2 NEMO:Ub4
- Kd [6]: 9.6 µM
- Kd [7]: 6.4 µM
B1: Human NEMO258-350 C347S (NEMO UBAN domain) (domain or fragment, UniProt Q9Y6K9 258-350, looked up)
chain: MQLEDLKQQLQQAEEALVAKQEVIDKLKEEAEQHKIVMETVPVLKAQADIYKADFQAERQAREKLAEKKELLQEQLEQLQREYSKLKASSQES
notes: NEMO (IKKγ, NF-κB essential modulator), human, residues 258-350 (UBAN domain) with C347S; also called NEMO mutant (C347S); IKKγ; source: expressed and purified as described in Vincendeau et al. (23)
- binding result [5]: binds
